Biological target: T1, HBsAg (乙肝表面抗原) (Hepatitis B virus)
T1 chain: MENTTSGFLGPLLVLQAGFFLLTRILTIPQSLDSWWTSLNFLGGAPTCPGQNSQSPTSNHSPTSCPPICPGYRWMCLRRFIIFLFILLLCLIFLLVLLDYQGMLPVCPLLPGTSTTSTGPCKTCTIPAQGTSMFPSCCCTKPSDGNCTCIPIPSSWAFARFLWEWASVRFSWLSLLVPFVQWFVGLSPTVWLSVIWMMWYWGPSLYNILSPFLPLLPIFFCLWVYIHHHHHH
Assay: SPR, Biacore 3000, HBsAg immobilised on CM5 chip (2400 RU), antibody as analyte from 100 nM in 2-fold dilutions

B1: 人源化抗体M3D (antibody, V domains shown)
VH: QVQLQESGPGLVKPSGTLSLTCAVSGVSISSPYDWTWVRQPPGKGLEWIGRIHGNGGSTSYNPSLKSRVTISVDKSKNQFSLKLSSVTAADTAVYYCVRDETWGQGTLVTVSS
VL: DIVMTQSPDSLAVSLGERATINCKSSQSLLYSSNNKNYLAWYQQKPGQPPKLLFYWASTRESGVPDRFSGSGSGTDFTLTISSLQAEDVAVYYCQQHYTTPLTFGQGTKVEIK
notes: also called humanized M3-23
**Q.** Which Kd does the source give for B1 here?
**A.** 1.12 nM

B2: 人源化抗体M1D (antibody, V domains shown)
VH: QVQLQESGPGLVKPSETLSLTCTVSGGSITSNFWSWIRQPPGKGLEWIGYISGSGTYTDYNPSLKSRVTISVDTSKNQFSLKLSSVTAADTAVYYCARSHDYGSNDYAFDFWGQGTTVTVSS
VL: DIQMTQSPSSLSASVGDRVTITCRATQDISSSLNWYQQKPGKAPKLLIYYANRLQSGVPSRFSGSGSGTDFTLTISSLQPEDFATYYCQQYHSLPLTFGGGTKVEIK
notes: also called humanized M1-23
**Q.** For B2, which Kd is on record?
**A.** 1.06 nM
